Assay results from US7662583B2, “Bioreactor containing cells expressing glycosyltransferase nucleic acids isolatable from Arabidopsis” (The University of York, priority 2003, dated 2010).

Experiments:
[1] = UGT enzyme reaction with quercetin (recombinant UGTs, HPLC); type: biochemical, Arabidopsis; conditions: 0.5 mM quercetin, 5 mM UDP-glucose, 30° C.; for Specific activity (nkat/mg protein) 3-O-glc: quercetin glucosylated at 3-OH; for Specific activity (nkat/mg protein) 3′-O-glc: quercetin glucosylated at 3′-OH; for Specific activity (nkat/mg protein) 4′-O-glc: quercetin glucosylated at 4′-OH; for Specific activity (nkat/mg protein) 7-O-glc: quercetin glucosylated at 7-OH
Summary of the method: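 Recombinant Arabidopsis UGTs (2 μg) incubated with 0.5 mM quercetin and 5 mM UDP-glucose in 100 mM Tris-HCl pH 7.0 at 30 °C for 1 h. Quercetin glucosides separated from aglycone by reverse-phase C18 HPLC (acetonitrile gradient, 0.1% TFA), detected at 370 nm.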

[2] = Whole-cell biocatalyst assay, E. coli expressing UGT in culture medium; type: cell-based; conditions: E. coli, 2x YT medium, 0.1 mM IPTG, 0.1 mM quercetin, 24 h; for Culture medium (μg/ml in supernatant) 3-O-glc: no added UDP-glucose
Experimental: FIG. 14 Whole-cell biocatalyst assay using UGT71C1. E. coli cells expressing recombinant were used in the biocatalyst assay. After incubation with 0.1 mM quercetin and 0.1 mM IPTG, cells were collected by centrifugation, extracted with 80% methanol and both the cell extracts (pellet) and culture medium (supernatant) were analysed using HPLC. (A) Changes in the combined amounts of aglycone/glucoside over a time-course of 0-48 h. (B) Changes in the level of different glucosides and aglycone in the culture medium over the same time-course.
Using the foundation established in the preceding example, we went on to investigate the potential of E. coli expressing plant UGTs as whole-cell biocatalysts to synthesise glucosides of quercetin. In the first instance, we used E. coli grown in 75 ml of standard culture medium. […] Table 2 describes results in which 7 different UGTs are expressed in E. coli and the identity and quantity of different glucosides recovered in the medium were analysed by HPLC. […] There was considerable variation in the level of different glucosides synthesised by the cells, although even under these non-optimised conditions, each of the four monoglucosides and two di-O-glucosides could be formed.

[3] = UGT enzyme reaction with cytokinins; type: biochemical; conditions: for Cytokinin products formed by the UGTs: 7-N-glucoside / Cytokinin products formed by the UGTs: 9-N-glucoside: cytokinins, 0.5 mM, 30° C., 3 h
Experimental: The assay mix (200 μl) contained 2 μg of recombinant protein, 100 mM Tris-HCl, pH 8.0, 5 mM UDP-glucose 0.5 mM ATP, 50 mM MgCl2, and 0.5 mM of cytokinin. The reaction was carried out at 30° C. for 3 h, and was quick-frozen and stored at −20° C. prior to the reverse-phase HPLC analysis
Reverse-phase HPLC (SpectraSYSTEM HPLC systems and UV6000LP Photodiode Array Detector, ThermoQuest) analysis was carried using a Columbus 5μ C18 column (250×4.60 mm, PHENOMENEX). Quercetin glucosides were separated from the aglycone by a linear gradient of 10-75% acetonitrile in H2O (all solution contained 0.1% trifluoroacetic acid) at 1 ml/mm over 20 mm and monitored at 370 nm. Cytokinin glucosides were separated from their aglycone by a liner gradient of 10-100% methanol in H2O (for N6-isopentenyladenine (iP), N6-benzyladenine and kinetin) or 10-60% methanol in H2O (for trans-zeatin and dihydrozeatin) at 1 ml/min over 20 mm. All solution contained 0.25% acetic acid and 0.04% triethylamine, trifluoroacetic acid. The separation was monitored at 206 nm and 252 nm. The identity of the products was confirmed by comparison with authentic gluco sides.
• 1. 7-N-glucoside (76C1, 76C2) • 2. 9-N-glucoside (76C1, 76C2) • 3. O-glucoside (only apply to trans-Zeatin and dihydrozeatin) (85A1 for trans-Zeatin; 85A1 and 73C5 for dihydrozeatin) Large Scale Fermentation

| Molecule | Specific activity (nkat/mg protein) 3-O-glc [1] | Specific activity (nkat/mg protein) 3′-O-glc [1] | Specific activity (nkat/mg protein) 4′-O-glc [1] | Specific activity (nkat/mg protein) 7-O-glc [1] | Culture medium (μg/ml in supernatant) 3-O-glc [2] | Cytokinin products formed by the UGTs: 7-N-glucoside [3] | Cytokinin products formed by the UGTs: 9-N-glucoside [3] | Cytokinin products formed by the UGTs: O-glucoside ([3]; substrate dihydrozeatin) | also measured |
| --- | --- | --- | --- | --- | --- | --- | --- | --- | --- |
| UGT89B1: Arabidopsis recombinant glycosyltransferase (protein, UniProt Q9C9B0 1-473, looked up) Flavonol …: MKVNEENNKPTKTHVLIFPFPAQGHMIPLLDFTHRLALRGGAALKITVLVTPKNLPFLSPLLSAVVNIEPLILPFPSHPSIPSGVENVQDLPPSGFPLMIHALGNLHAPLISWITSHPSPPVAIVSDFFLGWTKNLGIPRFDFSPSAAITCCILNTLWIEMPTKINEDDDNEILHFPKIPNCPKYRFDQISSLYRSYVHGDPAWEFIRDSFRDNVASWGLVVNSFTAMEGVYLEHLKREMGHDRVWAVGPIIPLSGDNRGGPTSVSVDHVMSWLDAREDNHVVYVCFGSQVVLTKEQTLALASGLEKSGVHFIWAVKEPVEKDSTRGNILDGFDDRVAGRGLVIRGWAPQVAVLRHRAVGAFLTHCGWNSVVEAVVAGVLMLTWPMRADQYTDASLVVDELKVGVRACEGPDTVPDPDELARVFADSVTGNQTERIKAVELRKAALDAIQERGSSVNDLDGFIQHVVSLGLNK | 2.05 nkat/mg protein | — (Activity lower than 0.02 nkat/mg protein has been considered as trace activity and is not shown in the Table.) | 3.38 nkat/mg protein | 3.22 nkat/mg protein | 1.08 µg/mL | – | – | – | Culture medium (μg/ml in supernatant) 4′-O-glc [2]: 0.94 µg/mL; Culture medium (μg/ml in supernatant) 7-O-glc [2]: 2.36 µg/mL |
| UGT78D2: Arabidopsis recombinant glycosyltransferase, FIG. 5 (protein, listed as Arabidopsis thaliana) MTKPSDPTRDSHVAVLAFPFGTHAAPLLTVTRRLASASPSTVFSFFNTAQSNSSLFSSGDEADRPANIRVYDIADGVPEGYVFSGRPQEAIELFLQAAPENFRREIAKAETEVGTEVKCLMTDAFFWFAADMATEINASWIAFWTAGANSLSAHLYTDLIRETIGVKEVGERMEETIGVISGMEKIRVKDTPEGVVFGNLDSVFSKMLHQMGLALPRATAVFINSFEDLDPTLTNNLRSRFKRYLNIGPLGLLSSTLQQLVQDPHGCLAWMEKRSSGSVAYISFGTVMTPPPGELAAIAEGLESSKVPFVWSLKEKSLVQLPKGFLDRTREQGIVVPWAPQVELLKHEATGVFVTHCGWNSVLESVSGGVPMICRPFFGDQRLNGRAVEVVWEIGMTIINGVFTKDGFEKCLDKVLVQDDGKKMKCNAKKLKELAYEAVSSKGRSSENFRGLLDAVVNII | 31.60 nkat/mg protein | — (Activity lower than 0.02 nkat/mg protein has been considered as trace activity and is not shown in the Table.) | — (Activity lower than 0.02 nkat/mg protein has been considered as trace activity and is not shown in the Table.) | — (Activity lower than 0.02 nkat/mg protein has been considered as trace activity and is not shown in the Table.) | 6.83 µg/mL | – | – | – | – |
| UGT76C2: glycosyltransferase, FIG. 10, glucosylates cytokinins (protein, listed as Arabidopsis thaliana) MEEKRNGLRVILFPLPLQGCINPMLQLANILHVRGFSITVIHTRFNAPKASSHPLFTFLQIPDGLSETEIQDGVMSLLAQINLNAESPFRDCLRKVLLESKESERVTCLIDDCGWLFTQSVSESLKLPRLVLCTFKATFFNAYPSLPLIRTKGYLPVSESEAEDSVPEFPPLQKRDLSKVFGEFGEKLDPFLHAVVETTIRSSGLIYMSCEELEKDSLTLSNEIFKVPVFAIGPFHSYFSASSSSLFTQDETCILWLDDQEDKSVIYVSLGSVVNITETEFLEIACGLSNSKQPFLWVVRPGSVLGAKWIEPLSEGLVSSLEEKGKIVKWAPQQEVLAHRATGGFLTHNGWNSTLESICEGVPMICLPGGWDQMLNSRFVSDIWKIGIHLEGRIEKKEIEKAVRVLMEESEGNKIRERMKVLKDEVEKSVKQGGSSFQSIETLANHILLL | – | – | – | – | – | 7-N-glucoside | 9-N-glucoside | – | – |
| UGT85A1: glycosyltransferase, FIG. 12, glucosylates cytokinins (protein, listed as Arabidopsis thaliana) MGSQIIHNSQKPHVVCVPYPAQGHINPMMRVAKLLHARGFYVTFVNTVYNHNRFLRSRGSNALDGLPSFRFESIADGLPETDMDATQDITALCESTMKNCLAPFRELLQRINAGDNVPPVSCIVSDGCMSFTLDVAEELGVPEVLFWTTSGCAFLAYLHFYLFIEKGLCPLKDESYLTKEYLEDTVIDFIPTMKNVKLKDIPSFIRTTNPDDVMISFALRETERAKRASAIILNTFDDLEHDVVHAMQSILPPVYSVGPLHLLANREIEEGSEIGMMSSNLWKEEMECLDWLDTKTQNSVIYINFGSITVLSVKQLVEFAWGLAGSGKEFLWVIRPDLVAGEEAMVPPDFLMETKDRSMLASWCPQEKVLSHPAIGGFLTHCGWNSILESLSCGVPMVCWPFFADQQMNCKFCCDEWDVGIEIGGDVKREEVEAVVRELMDGEKGKKMREKAVEWQRLAEKATEHKLGSSVMNFETVVSKFLLGQKSQD | – | – | – | – | – | – | – | O-glucoside | Cytokinin products formed by the UGTs: O-glucoside ([3]; substrate trans-Zeatin): O-glucoside |
| UGT73C5: Arabidopsis recombinant glycosyltransferase, FIG. 11 (protein, listed as Arabidopsis thaliana) MVSETTKSSPLHFVLFPFMAQGHMIPMVDIARLLAQRGVIITIVTTPHNAARFKNVLNRAIESGLPINLVQVKFPYLEAGLQEGQENIDSLDTMERMIPFFKAVNFLEEPVQKLIEEMNPRPSCLISDFCLPYTSKIAKKFNIPKILFHGMGCFCLLCMHVLRKNREILDNLKSDKELFTVPDFPDRVEFTRTQVPVETYVPAGDWKDIFDGMVEANETSYGVIVNSFQELEPAYAKDYKEVRSGKAWTIGPVSLCNKVGADKAERGNKSDIDQDECLKWLDSKKHGSVLYVCLGSICNLPLSQLKELGLGLEESQRPFIWVIRGWEKYKELVEWFSESGFEDRIQDRGLLIKGWSPQMLILSHPSVGGFLTHCGWNSTLEGITAGLPLLTWPLFADQFCNEKLVVEVLKAGVRSGVEQPMKWGEEEKIGVLVDKEGVKKAVEELMGESDDAKERRRRAKELGDSAHKAVEEGGSSHSNISFLLQDIMELAEPNN | — (Activity lower than 0.02 nkat/mg protein has been considered as trace activity and is not shown in the Table.) | — (Activity lower than 0.02 nkat/mg protein has been considered as trace activity and is not shown in the Table.) | 0.25 nkat/mg protein | 0.11 nkat/mg protein | – | – | – | O-glucoside | – |
| UGT76C1: glycosyltransferase, FIG. 9, glucosylates cytokinins (protein, listed as Arabidopsis thaliana) MEKRNERQVILFPLPLQGCINPMLQLAKILYSRGFSITIIHTRFNAPKSSDHPLFTFLQIRDGLSESQTQSRDLLLQLTLLNNNCQIPFRECLAKLIKPSSDSGTEDRKISCVIDDSGWVFTQSVAESFNLPRFVLCAYKFSFFLGHFLVPQIRREGFLPVPDSEADDLVPEFPPLRKKDLSRIMGTSAQSKPLDAYLLKILDATKPASGIIVMSCKELDHDSLAESNKVFSIPIFPIGPFHIHDVPASSSSLLEPDQSCIPWLDMRETRSVVYVSLGSIASLNESDFLEIACGLRNTNQSFLWVVRPGSVHGRDWIESLPSGFMESLDGKGKIVRWAPQLDVLAHRATGGFLTHNGWNSTLESICEGVPMICLPCKWDQFVNARFISEVWRVGIHLEGRIERREIERAVIRLMVESKGEEIRGRIKVLRDEVRRSVKQGGSSYRSLDELVDRISIIIEPLVPT | – | – | – | – | – | 7-N-glucoside | 9-N-glucoside | – | – |
